Test results as given in PMC11187310, “Are there double knots in proteins? Prediction and in vitro verification based on TrmD-Tm1570 fusion from C. nitroreducens” (Frontiers in Molecular Biosciences, 2023).

B1: single-domain EcTrmD (enzyme, E. coli (from the label EcTrmD), UniProt P0A873 1-255, looked up)
chain: MWIGIISLFPEMFRAITDYGVTGRAVKNGLLSIQSWSPRDFTHDRHRTVDDRPYGGGPGMLMMVQPLRDAIHAAKAAAGEGAKVIYLSPQGRKLDQAGVSELATNQKLILVCGRYEGIDERVIQTEIDEEWSIGDYVLSGGELPAMTLIDSVSRFIPGVLGHEASATEDSFAEGLLDCPHYTRPEVLEGMEVPPVLLSGNHAEIRRWRLKQSLGRTWLRRPELLENLALTEEQARLLAEFKTEHAQQQHKHDGMA
notes: tRNA methyltransferase D (TrmD), single-domain protein, labelled EcTrmD; 28.4 kDa monomer; The printed monomer mass of 28.4 kDa fits the whole protein
B2: TrmD domain of CnTrmD-Tm1570 (residues 1-240) (domain or fragment, Calditerrivibrio nitroreducens, UniProt E4THH1 1-240, looked up)
chain: MKRYNVITIFPEMINEIFKYGVLSKGIDIGLFRVNPINLRDYTEDKHKTVDDYQYGGGHGLVMKPEPIYKAIADLKSKKDTHVVFLDPRGEQFTQKTAERLYNYDDITFVCGRYEGIDDRVRELMADEMISIGDFVITGGELAAVTIIDAVARLIPGVLGDENSPNEESFTTGLLEYPHFTRPAEFMGKKVPEVLISGNHEEIRRWRLTESIKTTLQNRPDMILRKSLSREEEQILWSLT
notes: TrmD domain of TrmD-Tm1570 of Calditerrivibrio nitroreducens, UniProtKB E4THH1, residues 1-240; 27.5 kDa monomer; Truncated version of m1
B3: TrmD-Tm1570 fusion protein from Calditerrivibrio nitroreducens (enzyme, UniProt E4THH1 1-433, looked up)
chain: MKRYNVITIFPEMINEIFKYGVLSKGIDIGLFRVNPINLRDYTEDKHKTVDDYQYGGGHGLVMKPEPIYKAIADLKSKKDTHVVFLDPRGEQFTQKTAERLYNYDDITFVCGRYEGIDDRVRELMADEMISIGDFVITGGELAAVTIIDAVARLIPGVLGDENSPNEESFTTGLLEYPHFTRPAEFMGKKVPEVLISGNHEEIRRWRLTESIKTTLQNRPDMILRKSLSREEEQILWSLTRGVQRKYNIYVALMHYPMRDKEGKVVTTSITNMDLHDISRSCRTFGVKNYFVVNPMPAQREIASRVVRHWIKGYGATYNENRKEAFEYTIITDSLASVIKSIEEKESGSPIIIATTARYQQKAISIEKLKEIADRPILLLFGTGWGFVDDILEFADYVLKPIHGVGDFNHLSVRSAVAIYLDRINRSFQEDIL
notes: TrmD-Tm1570 (PF01746-PF09936 architecture) of Calditerrivibrio nitroreducens, UniProtKB E4THH1; full-length protein, residues 1-433 by the limits of the two truncated domains; 49.6 kDa monomer; Codon-optimized synthetic gene in pET28b; further details of the constructs are in SI Materials and Methods; also called CnTrmD-Tm1570; fusion TrmD-Tm1570

Assays:
[1] = target: Tm1570 domain of CnTrmD-Tm1570 (residues 241-433) (Calditerrivibrio nitroreducens); assay: SEC; preparative Superdex 75 column; running buffer 50 mM Hepes, 300 mM NaCl, 10% glycerol, 1 mM TCEP, pH 7.4; proteins refolded from urea; oligomer state judged by retention volumes
[2] = target: the molecule itself; assay: as above

Row | Molecule | stoichiometry N [2] | further results
1 | Tm1570 domain of CnTrmD-Tm1570 (residues 241-433) (domain or fragment) |  | stoichiometry N [1]: 2
2 | B1 |  | binding result [2]: binds
3 | B2 | 2 | 
4 | B3 | 2 | 
